Legend:
Assay in all cases: anti-FLAG purification of YoeB-3×FLAG from cell surface extract, SDS-PAGE band integration of the co-purified protein
CwlE protein = biological target: T1, CwlE protein (Bacillus subtilis, UniProt O07532 27-488)
T1 construct: Endogenous protein of the WE1YoeB3FL strain, co-purified with YoeB-3×FLAG
Experimental: (§1) After the pre-culture, the pre-cultured strain was inoculated in 50 ml of LB liquid medium to bring the OD₆₀₀ value to 0.01, and main culture was conducted until the OD₆₀₀ value reached 2.0. After the completion of the culture, the culture solution was centrifuged at 10,000 rpm for 10 minutes. The supernatant was removed and the precipitate was washed with 25 mM Tris-HCl (pH 7.2). The washed precipitate was suspended in 3M LiCl (25 mM Tris-HCl, pH 7.2) to a density of 10 μl/OD, and the suspension was allowed to stand on ice for 20 minutes. Thereafter, centrifugation was carried out at 4° C. and 10,000 rpm for 10 minutes. The supernatant was recovered, TCA (trichloroacetic acid) was added to a final concentration of 5%, the mixture was thoroughly mixed, and the resulting suspension was allowed to stand on ice for 60 minutes. Thereafter, centrifugation was carried out at 4° C. and 15,000 rpm for 5 minutes. The supernatant was removed, and the precipitate was rinsed with 70% ethanol to thoroughly remove TCA. Thus, outer surface proteins were extracted from the WE1YoeB3FL strain and the WE1E3FL strain, respectively.
(§2) The mixture was mildly (8 rpm) agitated at 4° C. for 1 hour. Thereafter, centrifugation was carried out at 5,000 rpm for 1 minute. The supernatant was removed while carefully refraining from suctioning the precipitated gel. Thereafter, 500 μl of TBS buffer was added to prepare a suspension. Thereafter, the gel was transferred to the Spin Column (Micro Bio Spin Chromatography Columns (BIO RAD)), and the gel was trapped via centrifugation at 1,000 g for 30 seconds. Thereafter, the resultant was washed three times with 500 μl of TBS buffer. Subsequently, 100 μl of Glycine HCl elution buffer (0.1M glycine-HCl) was sequentially added thereto and thoroughly agitated. Elution was carried out 1 minute later at 1,000 g for 30 seconds, and this procedure was repeated two times. The products were combined to prepare an eluted solution.
(§3) Subsequently, the band pattern of the resulting eluted solution was inspected via SDS-PAGE. Electrophoresis was carried out by charging proteins in amounts corresponding to the amount extracted from the cells (OD₆₀₀=200) to the relevant lanes.

YojL protein = YojL protein (Bacillus subtilis, UniProt O31852 27-414)
Experimental: as §1, §2, §3

CwlF protein = biological target: T2, CwlF protein (Bacillus subtilis, UniProt P54421 26-334)
T2 construct: Endogenous protein of the WE1YoeB3FL strain, co-purified with YoeB-3×FLAG
T2 sequence (P54421 26-334 limits assumed): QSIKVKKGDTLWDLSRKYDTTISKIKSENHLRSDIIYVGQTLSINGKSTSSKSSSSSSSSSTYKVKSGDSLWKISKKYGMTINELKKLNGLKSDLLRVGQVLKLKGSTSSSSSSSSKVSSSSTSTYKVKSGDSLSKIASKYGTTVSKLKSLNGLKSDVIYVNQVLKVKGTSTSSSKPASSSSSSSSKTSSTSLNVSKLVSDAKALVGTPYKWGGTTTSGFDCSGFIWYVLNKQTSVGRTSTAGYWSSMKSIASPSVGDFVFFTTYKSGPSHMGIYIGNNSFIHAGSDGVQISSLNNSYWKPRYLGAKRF
Experimental: as §1, §2, §3

T1 sequence (O07532 27-488 limits assumed): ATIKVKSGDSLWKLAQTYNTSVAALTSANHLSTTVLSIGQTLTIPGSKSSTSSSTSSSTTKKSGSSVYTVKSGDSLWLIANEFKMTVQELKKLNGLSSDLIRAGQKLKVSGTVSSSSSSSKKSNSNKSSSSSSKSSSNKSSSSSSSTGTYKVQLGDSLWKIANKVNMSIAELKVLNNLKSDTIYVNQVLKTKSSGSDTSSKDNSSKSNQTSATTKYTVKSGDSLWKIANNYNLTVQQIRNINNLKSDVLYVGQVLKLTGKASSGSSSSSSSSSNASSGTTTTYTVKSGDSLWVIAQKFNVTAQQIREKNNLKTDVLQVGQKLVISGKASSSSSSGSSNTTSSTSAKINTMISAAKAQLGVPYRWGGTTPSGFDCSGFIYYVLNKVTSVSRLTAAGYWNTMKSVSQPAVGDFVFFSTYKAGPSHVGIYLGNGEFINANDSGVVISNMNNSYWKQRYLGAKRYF

B1: YoeB-3×FLAG protein (other)
chain: KNTSGDLSQKQALQLALSAREHFWNTMSGHNPKVKKAVCPSGTFEYQNLQYVYMCSDLGTKAKAVNYLTPIFTKTAIEKGFKDYHFTVSKGKLAVPIGDGDNLLNWKKSTAKLISKKGSTITYEFTVPTLDGSPSAKRKVTFVKENKKWKVNQFDAVI
notes: Expressed in B. subtilis WE1 from pCA3FLYoeB with IPTG, extracted from the cell surface with LiCl and purified on anti-FLAG M2 gel; also called YoeB protein (bait from the WE1YoeB3FL strain); not shown: 3×FLAG tag
CwlE protein
  Integrated value: 30100
  Integrated value/Molecular weight: 0.59
  Proportion relative to YoeB (1): 0.89
YojL protein
  Integrated value: 989
  Integrated value/Molecular weight: 0.02
  Proportion relative to YoeB (1): 0.03
CwlF protein
  Integrated value: 1250
  Integrated value/Molecular weight: 0.03
  Proportion relative to YoeB (1): 0.05
